Several values for one entry are separate records, joined by “and”; a condition that tells them apart may be missing. Equal values may be shown once.
Key:
BoNT/A light chain (LCA) [1] = target: T1, BoNT/A light chain (LCA) (Clostridium botulinum type A, UniProt P0DPI1 2-448); experiment: SPR
BoNT/A light chain (LCA) [2] = target: T1, BoNT/A light chain (LCA)

T1 sequence (P0DPI1 2-448): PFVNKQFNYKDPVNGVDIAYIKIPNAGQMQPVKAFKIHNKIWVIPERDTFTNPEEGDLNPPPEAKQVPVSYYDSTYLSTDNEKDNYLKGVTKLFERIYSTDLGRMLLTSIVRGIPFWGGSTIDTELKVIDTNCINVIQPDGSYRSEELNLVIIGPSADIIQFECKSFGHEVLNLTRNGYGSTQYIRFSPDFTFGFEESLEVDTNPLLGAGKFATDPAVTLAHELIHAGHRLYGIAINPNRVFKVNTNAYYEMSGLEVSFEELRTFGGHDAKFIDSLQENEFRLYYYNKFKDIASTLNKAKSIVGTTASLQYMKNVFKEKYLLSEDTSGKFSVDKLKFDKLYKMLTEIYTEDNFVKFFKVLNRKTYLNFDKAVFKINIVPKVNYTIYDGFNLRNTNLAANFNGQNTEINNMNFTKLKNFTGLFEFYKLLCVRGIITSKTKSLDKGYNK

B1: TW1 2'-F modified (XNA)
RNA: GGGUACCCACUCAGGUACGAUUGGUGCGAUAAACUAGACUCGUCAUGCGCAGUCUCCUACAGCUUUCUAGAAUUAAGCUUAGGC
modifications: 2'-fluoro pyrimidines (C and U)
BoNT/A light chain (LCA) [1]
  Kd: 31.4 ± 4.4 nM
BoNT/A light chain (LCA) [2]
  IC50: 639 ± 13 nM
  Ki: 433 nM and 720 nM

B2: TW1 unmodified (structured_RNA)
RNA: GGGUACCCACUCAGGUACGAUUGGUGCGAUAAACUAGACUCGUCAUGCGCAGUCUCCUACAGCUUUCUAGAAUUAAGCUUAGGC
BoNT/A light chain (LCA) [1]
  Kd: 109 ± 9.9 nM

B3: TW3 2'-F modified (XNA)
RNA: GGGUACCCACUCAGGUACGUGGGAAUUGAGCGGGUCACACUAUAAGCACGAGCCUUAGACAGCUUUCUAGAAUUAAGCUUAGGC
modifications: 2'-fluoro pyrimidines (C and U)
BoNT/A light chain (LCA) [1]
  Kd: 27.9 ± 4.3 nM
BoNT/A light chain (LCA) [2]
  IC50: 727 ± 12 nM
  Ki: 463 nM and 849 nM

B4: TW3 unmodified (structured_RNA)
RNA: GGGUACCCACUCAGGUACGUGGGAAUUGAGCGGGUCACACUAUAAGCACGAGCCUUAGACAGCUUUCUAGAAUUAAGCUUAGGC
BoNT/A light chain (LCA) [1]
  Kd: 59.1 ± 7.3 nM

From publication PMC5010959
